In patent publication US20220056119A1 (Regeneron, published 2022):
Each block holds one binder with its values, some of them ahead of it.

Experiments:
[1] = target: T1, Activin B (homodimer of two inhibin betaB subunits) (human, UniProt P09529 293-407); assay: SPR (Biacore), mAb captured by anti-Fc, Activin B injected, 25 C
T1 construct: Bought (R&D Systems #659-AB-025/CF)
T1 chain: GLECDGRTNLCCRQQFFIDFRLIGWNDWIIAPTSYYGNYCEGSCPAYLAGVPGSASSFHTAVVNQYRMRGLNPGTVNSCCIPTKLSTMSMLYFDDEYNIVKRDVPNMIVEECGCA
Experimental: Antibody-antigen association was monitored for 240 seconds while dissociation in buffer was monitored for 600 seconds. Kinetic association and dissociation rate constants were determined by processing and fitting the data using Scrubber software version 2.0c. Binding equilibrium dissociation constants (KD) and dissociative half-lives (t_{1/2}) were then calculated from the kinetic rate constants as: KD (M)=kd/kₐ and t_{1/2} (min)=[ln 2/(60*kd)]. (NB=no binding observed under the conditions used; NT=not tested).

[2] = target: T2, Activin A (human, UniProt P08476 311-426); assay: cell-based or functional assay
T2 sequence: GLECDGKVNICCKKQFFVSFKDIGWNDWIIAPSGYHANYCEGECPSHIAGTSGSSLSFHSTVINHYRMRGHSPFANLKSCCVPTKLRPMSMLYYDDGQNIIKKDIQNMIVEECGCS

[3] = target: T3, Activin B (human, UniProt P09529 293-407); assay: cell-based or functional assay
T3 chain: T1 chain

[4] = target: T4, Activin AB (human, UniProt P08476 311-426; P09529 293-407); assay: cell-based or functional assay
T4 chain 1: T2 sequence
T4 chain 2: T1 chain

[5] = target: T5, Activin AC (human, UniProt P55103 237-352); assay: cell-based or functional assay
T5 sequence 1: T2 sequence
T5 sequence 2: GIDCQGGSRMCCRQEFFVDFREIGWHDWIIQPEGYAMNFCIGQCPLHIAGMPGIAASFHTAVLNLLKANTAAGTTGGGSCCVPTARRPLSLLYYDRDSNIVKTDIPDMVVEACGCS

[6] = target: T2, Activin A; assay: SPR, 5 nM Activin A + 15 nM binder over hActRIIA-hFc surface
Experimental: (§1) The binding signal (RU) was measured at 150 seconds after the start of the injection, and this signal was subtracted by the measured RU value for a negative control reference surface to determine the specific binding signal.

[7] = target: T2, Activin A; assay: SPR, 5 nM Activin A + 30 nM binder over hActRIIA-hFc surface
Experimental: as §1

[8] = target: T2, Activin A; assay: SPR, 5 nM Activin A + 60 nM binder over hActRIIA-hFc surface
Experimental: as §1

[9] = target: T2, Activin A; assay: SPR, 5 nM Activin A + 0.94 nM binder over hActRIIA-hFc surface
Experimental: as §1

[10] = target: T2, Activin A; assay: SPR, 5 nM Activin A + 1.88 nM binder over hActRIIA-hFc surface
Experimental: as §1

[11] = target: T2, Activin A; assay: SPR, 5 nM Activin A + 3.75 nM binder over hActRIIA-hFc surface
Experimental: as §1

[12] = target: T2, Activin A; assay: SPR, 5 nM Activin A + 7.50 nM binder over hActRIIA-hFc surface
Experimental: as §1

[13] = target: T2, Activin A; assay: SPR, 5 nM Activin A + 15 nM binder over Follistatin-288 surface
Experimental: as §1

[14] = target: T2, Activin A; assay: SPR, 5 nM Activin A + 30 nM binder over Follistatin-288 surface
Experimental: as §1

[15] = target: T2, Activin A; assay: SPR, 5 nM Activin A + 60 nM binder over Follistatin-288 surface
Experimental: as §1

[16] = target: T2, Activin A; assay: SPR, 5 nM Activin A + 7.5 nM binder over Follistatin-288 surface
Experimental: as §1

[17] = target: T2, Activin A; assay: SPR, 5 nM Activin A + 0.94 nM binder over Follistatin-288 surface
Experimental: as §1

[18] = target: T2, Activin A; assay: SPR, 5 nM Activin A + 1.88 nM binder over Follistatin-288 surface
Experimental: as §1

[19] = target: T2, Activin A; assay: SPR, 5 nM Activin A + 3.75 nM binder over Follistatin-288 surface
Experimental: as §1

[20] = target: T2, Activin A; assay: SPR, 5 nM Activin A + 0 nM binder (no inhibitor) over Follistatin-288 surface
Experimental: as §1

[21] = target: T2, Activin A; assay: SPR, 5 nM Activin A + 0.00 nM binder (no inhibitor) over hActRIIA-hFc surface
Experimental: as §1

B1: H4H10423P (antibody, human IgG4, V domains shown)
VH: QVQLQQSGPGLLKPSQTLSLTCAISGDSVSSNSAAWSWIRQSPSRGLEWLGRTYYRANWFNDYALSVKSRITINPVTSTNHFSLQLHSVTPEDTAVYYCAREGALGYYFDSWGQGTLVTVSS
VL: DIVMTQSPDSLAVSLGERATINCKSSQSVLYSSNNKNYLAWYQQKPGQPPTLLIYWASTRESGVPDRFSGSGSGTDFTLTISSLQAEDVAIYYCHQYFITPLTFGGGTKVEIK
- 50 nM Ag Bound (RU) [1]: 4.7 RU

B4: H4H10440P2 (antibody, human IgG4, V domains shown)
VH: EVQLVESGGGVVQPGGSLRLSCAASTFTFDDFAMHWVRQAPGKGLEWVSLITGDGGSTYYADPVKGRFTISRDNSKNSLYLQMNSLRTEDTALYYCVKDWWIAARPDYYYYGMDVWGQGTTVTVSS
VL: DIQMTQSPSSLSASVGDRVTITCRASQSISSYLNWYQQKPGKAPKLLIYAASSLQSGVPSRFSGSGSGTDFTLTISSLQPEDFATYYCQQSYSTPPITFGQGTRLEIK
- IC50, inhibition of 100 pM Activin A in A204/CAGAx12-Luc luciferase bioassay [2]: 2.8e-10 M
- IC50, inhibition of 50 pM Activin B in A204/CAGAx12-Luc luciferase bioassay [3]: 5.2e-09 M
- IC50, inhibition of 30 pM Activin AB in A204/CAGAx12-Luc luciferase bioassay [4]: 4.3e-10 M
- IC50, inhibition of 4 nM Activin AC in A204/CAGAx12-Luc luciferase bioassay [5]: 0.75 nM
- % bound RU w/ no inhibitor [6]: 4%
- % bound RU w/ no inhibitor [7]: 3%
- % bound RU w/ no inhibitor [8]: 3%
- % bound RU w/ no inhibitor [9]: 75%
- % bound RU w/ no inhibitor [10]: 52%
- % bound RU w/ no inhibitor [11]: 17%
- % bound RU w/ no inhibitor [12]: 6%
- % bound RU w/ no inhibitor [13]: 2%
- % bound RU w/ no inhibitor [14]: 1%
- % bound RU w/ no inhibitor [15]: 0%
- % bound RU w/ no inhibitor [16]: 4%
- % bound RU w/ no inhibitor [17]: 76%
- % bound RU w/ no inhibitor [18]: 57%
- % bound RU w/ no inhibitor [19]: 17%
- % bound RU w/ no inhibitor [20]: 100%
- % bound RU w/ no inhibitor [21]: 100%

Further lines, results first:

- IC50, inhibition of 100 pM Activin A in A204/CAGAx12-Luc luciferase bioassay [2]: 2e-10 M
- IC50, inhibition of 50 pM Activin B in A204/CAGAx12-Luc luciferase bioassay [3]: 1.3e-10 M
- IC50, inhibition of 30 pM Activin AB in A204/CAGAx12-Luc luciferase bioassay [4]: 1.4e-10 M
- IC50, inhibition of 4 nM Activin AC in A204/CAGAx12-Luc luciferase bioassay [5]: 1.3 nM
- % bound RU w/ no inhibitor [6]: 2%
- % bound RU w/ no inhibitor [7]: 2%
- % bound RU w/ no inhibitor [8]: 2%
- % bound RU w/ no inhibitor [9]: 75%
- % bound RU w/ no inhibitor [10]: 55%
- % bound RU w/ no inhibitor [11]: 16%
- % bound RU w/ no inhibitor [12]: 2%
- % bound RU w/ no inhibitor [13]: 1%
- % bound RU w/ no inhibitor [14]: 2%
- % bound RU w/ no inhibitor [15]: 2%
- % bound RU w/ no inhibitor [16]: 1%
- % bound RU w/ no inhibitor [17]: 78%
- % bound RU w/ no inhibitor [18]: 61%
- % bound RU w/ no inhibitor [19]: 16%
- % bound RU w/ no inhibitor [20]: 100%
- % bound RU w/ no inhibitor [21]: 100%
B2: H4H10436P2 (antibody, human IgG4, V domains shown)
VH: QVQLVESGGGVVQPGRSLRLTCVASGFTVSSYGMHWVRQAPGKGLEWVAVMFYDESKKYYADSVKGRFTISRDNSKNTLYLQMNSLRVEDTAVYYCARDEQLDFEYWGQGTLVTVSS
VL: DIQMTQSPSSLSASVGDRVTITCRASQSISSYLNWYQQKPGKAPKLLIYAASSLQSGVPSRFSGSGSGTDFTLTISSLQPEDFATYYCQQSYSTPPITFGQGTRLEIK

- IC50, inhibition of 100 pM Activin A in A204/CAGAx12-Luc luciferase bioassay [2]: 1.6e-10 M
- IC50, inhibition of 50 pM Activin B in A204/CAGAx12-Luc luciferase bioassay [3]: 7.9e-08 M
- IC50, inhibition of 30 pM Activin AB in A204/CAGAx12-Luc luciferase bioassay [4]: 2.9e-10 M
- IC50, inhibition of 4 nM Activin AC in A204/CAGAx12-Luc luciferase bioassay [5]: 0.58 nM
- % bound RU w/ no inhibitor [6]: 1%
- % bound RU w/ no inhibitor [7]: 1%
- % bound RU w/ no inhibitor [8]: 1%
- % bound RU w/ no inhibitor [9]: 87%
- % bound RU w/ no inhibitor [10]: 66%
- % bound RU w/ no inhibitor [11]: 19%
- % bound RU w/ no inhibitor [12]: 1%
- % bound RU w/ no inhibitor [13]: 1%
- % bound RU w/ no inhibitor [14]: 2%
- % bound RU w/ no inhibitor [15]: 3%
- % bound RU w/ no inhibitor [16]: 1%
- % bound RU w/ no inhibitor [17]: 97%
- % bound RU w/ no inhibitor [18]: 80%
- % bound RU w/ no inhibitor [19]: 20%
- % bound RU w/ no inhibitor [20]: 100%
- % bound RU w/ no inhibitor [21]: 100%
B3: H4H10429P (antibody, human IgG4, V domains shown)
VH: QVQLVESGGGVVQPGRSLRLSCVASGFTVSSYGIHWVRQAPGKGLEWVSVIWYDGRNKDYADSVKGRFTISRDNSKNTVYLEMKGLRAEDTALYYCARDKTGDFDSWGQGTLVTVSS
VL: DIQMTQSPSSLSASVGDRVTITCRASQNINSFLSWYQQKPGKAPKFLIYDASSIQSGAPSRFSGSGSGTDFTLTISSLQPEDFATYYCQQSYSSPFTFGQGTKLEIK
